These results are taken from the DeepSol protein solubility set.

The series is described as follows: soluble on expression in E. coli; label from the status in PepcDB or PDB records.
For “MLQKLIQILRRNEYVKNVYKNTVSNFIETSIPEITPFNARTSSIKGKRLNLLVPSINQEHMFGGISTALKLFEQFDNKKFKKRIILTDATPNPKDLQSFKSFKYVMPEEDKDFALQIVPFNDRYNRTIPVAKHDIFIATAWWTAYAAQRIVSWQSDTYGIPPNKILYIIQDFEPGFYQWSSQYVLAESTYKYRGPQIAVFNSELLKQYFNNKGYNFTDEYFFQPKINTTLKNYINDKRQKEKIILVYGRPSVKRNAFTLIVEALKIFVQKYDRSNEWKIISVGEKHKDIALGKGIHLNSLGKLTLEDYADLLKRSSIGISLMISPHPSYPPLEMAHFGLRVITNKYENKDLSNWHSNIVSLEQLNPENIAETLVELCMSFNNRDVDKKESSNMMFYINEFNEFSFIKEIEEKL”, the “soluble on expression in E. coli” value is “soluble”.

Consider “MGSDKIHHHHHHMQLAQARNDNGERFVLVIEDDPTQARRLDDVNSVHALALTALDRKVGLAALIKEWPGDARVDAVALADKGQLLAPLDHPDPAHLLVTGTGLTHLGSAEGRDKMHRQMNEADQSDQPLTDSMKMFRKGLEGGKPAPGDFGVQPEWFYKGDGGIVMAPGEALRMPHFALDGGEEPEVAGLYLIDNDGVPRRIGYALGNEFSDHVTERENYLYLAHSKLRACSFGPTLLIDELPDDVQGTSRIRRGDEVLWEKPFISGEANMCHTLANLEAHHFKYAQFCRPGDVHVHFFGTATLSFSDGIIPQPGDVFEIDAKPFALPLRNPLSKDAVAPAPSVKPL”, for which the “soluble on expression in E. coli” value is recorded as “not soluble”.

As for “MGHHHHHHSHMRFFHWFSKWRKLHRDQEYEVTWYISWSPCTKCTRDMATFLAEDPKVTLTIFVARLYYFWDPDYQEALRSLCQKRDGPRATMKIMNYDEFQHCWSKFVYSQRELFEPWNNLPKYYILLHIMLGEILR”, the “soluble on expression in E. coli” value is listed as “not soluble”.

Turning to “MKSSTMTSDYYKQTQIDQTLRLREVLKTLPPFAKDYFRAMEPKSSAKTRINYAYDIRVFFHFLLENNPIYKNYTMDQFRVQDLERIEPVDIEEYMEYLKVYKREDNEMITNGERGLKRKMSALRSFYSYYFKHQYIATNPTLLEHHHHHH”, the “soluble on expression in E. coli” value was “not soluble”.

For “MPKETFFNLPKDKRNLIISAAMDEFSKAGYNTASINQICKKSNIPKGSFYQYFTDKLDLYVYIMTLTIEEKIKFFSSAIAEFHTLTFLEQFRLLFLKGLEFAKKHPQYAALADQFSKEDNESVKSAVIKEGDKQAESLFMQMIHNAKTKGEIDSKVDSLALCLLLQSLNSAVNKYMIGKFGGISYEYNQEDINNFVDSLLDIIFSGIQNKAD”, the “soluble on expression in E. coli” value is “not soluble”.

With “MRILGEKVRQFRKRKGMSQKELADGICTQATISLIEKKSKIPSMKIMMKICNRLGIRLSEVIIENDDQLYRTFKKIDTLIRHTQLEEAQDVFQHIRPKQLRSNTDKKQYYYYEGYLQLVLNDNADEAIFNFGMLLNQFVKSSHDMFAILATLGTGLAYERKQAYDKAEIFVKQAVATLHTMDAQAMPMGDDDYLQNEILIYASAAQLYAKINFPEEALELIDLALKKAQESQSLYLLDRLYAQKAANEVVLNNVQSAHDHYYVAYALSLVTHNSSLTEKITKEMAEYHIAPLQVANDA”, the “soluble on expression in E. coli” value is “not soluble”.

Take “GHMLVYNQEELVRFVEEAKQYARYGKVADYIPALGKANPNELSIAIYTPDDEVVSAGDVTVKVTLQSISKIIALALVLIDRGEDEVFHKVGMEPTDYPFHSIAKLEEKPAKPLNPMINAGALVVTSMIQGGSVSERLERLLAFVRRLAGNERISYSDEVARSEFETAFLNRSLCYFLKQHRIIDEDVEELMELYTKQCAIEMTCIDLARIGLVLALDGRDPHSSEPLMPLDVARICKTFMVTCGMYNSSGEFAIKVGIPAKSGVSGGILAAVPGRCGIGVFGPALDDKGNSLTGVKLLERLSKTYSLSIF”: the “soluble on expression in E. coli” value is recorded as “soluble”.

On to “MGSDKIHHHHHHMLNQQWLATFVTLVEVGHFTHTANKLFMTQPGVSQHIKKLEEQVGVHLLLRKGKRFELTEAGAILYQHARQYQLAETELLARLQTDNTYVGECRFGCSGAIASLLYPHFLERQIQYPELCVKIEAAPNQRIVSGILTNQLDMGIVTKRGEEADLTYQALGYAELSLVLPSQYLVDKIGIELLEQIGFIDHPDGDYYLQQVLQANFGGRAPMVNSRTGSPVKAHTMAFTHHIRRTGYVNQLSQILLPVAKGLGFTVLPLSTVNAFMPRESLWAVDLEQKVQESLYLVHKSTRPLPSRFDAFIEMAARLIAN”, for which the “soluble on expression in E. coli” value is given as “not soluble”.

Take “MGSDKIHHHHHHGCSYGVGDDCLPPEEPVPIRMAIAEGKLSTRAPVTTIDASNLSNVGIYAVSEGSIAGQYPWTSTPFALNLVPSGISGSQLSFNPKLYYPLGGKRVIFYSYYPRTTATSGSNYITAPGNGVAPAYHFTLTGTEDIMYAAGTPTGSTSTMPVSLTFNHVLTQLQLNTSLLGALSSIKLLGVYNKGMLDIGNGNVTYDSSTTDITLTVPLLGSVTNTVMVPAGVASYKVEVVLLLSLLKRTYLVKPTSGNFQPGVIYTISL”: the “soluble on expression in E. coli” value is given as “not soluble”.

Take “MSVEEEKGLLARADEFLQAFKKGAEFTQELLRENERLRFRTLQLEADQKGEGVAAALAVENRKLAARVEELEREIAEIIGQIRQIEAENNDFAARYVEIEEENNNLANLYIASYQLHSTLDFSEVLQIITEIIINLIGAEEFAVMLVDEKTGSLDAVAAEGISLEELPRVRLGEGVIGIAAGTGENYFAEGPETYERDLLRPMVCIPLKIKEHVIGVIAIYKLLIQKKSFASVDYELFTLLAGHAATAIFSSRIYSDSERKLSTMQGFINLLTT”: the “soluble on expression in E. coli” value was “not soluble”.

Regarding “MFYITSKKVPFVTYSKNVFIPVTNICRNQCGYCGFRREPGQPGARLMKPEEVISVLENGVRAGCTEALFTFGERAEEVPGYGEMLEEIGYSSTLEYLVFLCETAIDIGILPHTNAGIMTRSELEALKPLNASMGLMLESTAVLAAHKDCPGKIPERRLETIREAGKLKIPYTTGLLIGIGESRDDRIESLEAIAALHREYGHIQEVIIQNFAPKPGTEMENFPEPAVEEMMDSVELAARILPGDVAVQVAPNLIDPKSLIAKGVTDLGGISPLTIDWINPEAEWPDVKNLQKKLGDIPLKERLPVYPPYVKKGWYSERIGSLIKRLSDNSGYLEHHHHHH”, the “soluble on expression in E. coli” value is reported as “not soluble”.

As to “FQIGDMVARKSYQMDVLFRIIGIEQTSKGNSIAILHGDEVRLIADSDFSDLVAVKKDEQMMRKKKDESRMNESLELLRQDYKLLREKQEYYATSQYQHQEHYFHMPGKVLHLDGDEAYLKKCLNVYKKIGVPVYGIHCHEKKMSASIEVLLDKYRPDILVITGHDAYSKQKGGIDDLNAYRHSKHFVETVQTARKKIPHLDQLVIFAGACQSHFESLIRAGANFASSPSRVNIHALDPVYIVAKISFTPFMERINVWEVLRNTLTREKGLGGIETRGVLRIGMPYKSN”, the “soluble on expression in E. coli” value is “not soluble”.

“GVGRLDDLKRSPLFQNVPEDAMREALKVVTERNFQPDELVVEQDAEGEALHLVTTGVVRVSRVSLGGRERVLGDIYAPGVVGETAVLAHQERSASVRALTPVRTLMLHREHFELILRRHPRVLWNLAEMLARRVTFLNDELIAFGQNTEAALTHVFANLYRQRLAAGVPQPEVLPLGTQDIMARTSSSRETVSRVLKRLEAHNILEVSPRSVTLLDLAALEALSFEGAETD”: the “soluble on expression in E. coli” value was “soluble”.

As for “MGQNSSQIPEHELEHLSIESGLSRGGILKLYGRFISLATHRDKTTNEYFLTKGDFQSIAELKQNPLGDRIIDAFFADAEVLERRKVYFKDFVKVLSHFRPINKNKPHPWNSREAKLRFAFTMYDLNKSGTITKDEFQDILAMMIGVGVPKDQVNSIADRTMREADRDGDGFITFQEFCNAMEKTDIEQKMSFRFLT”, the “soluble on expression in E. coli” value is “not soluble”.

Regarding “MSLQSKEDFIEMRVPASAEYVSLIRLTLSGVFSRAGATYDDIEDAKIAVSEAVTNAVKHAYKENNNVGIINIYFEILEDKIKVVISDKGDSFDYETTKSKIGPYDKDENIDFLREGGLGLFLIESLMDEVTVYKESGVTISMTKYIKKEQVRNNGERVEISEGHHHHHH”, the “soluble on expression in E. coli” value is “soluble”.

Take “SLHVTELTAFLVPLPLKREIKHASFTRTESINLLIRCKLSNGTIGWGEGVPRPYVTGETPEGCLQQLSQSNLHPALMQSASNWPEVIAICDALQFNNDSDDSRGCGSNSLRCAVELSLLDAFGRHFGQPVSAVVPHVAEAAEIHVRQPRVRYSTTITSSGAKSERISALKMRAYGFAQCKIKVGVDGQDDPSRVARIRRWIGGGVDLRLDANEAWRPEEVAEKMRPLREFGVTCIEQPVAHDQVDALASLRESIGVPIMLDESLTSRMDAERAIELGTCDLFNLRLSKCGGFLSCLRLAALARASGLGYQLGCHPGESGVLSAAGRHWASSVRDIRYLEGSYDRHLLTTLPTQEDITFRYGGWAPALDSPGLGVTIREDWLRQNAKAERTFVVEAQ”: the “soluble on expression in E. coli” value is “soluble”.

For “MAHHHHHHMSYPYYTEFFVRFPKFKEREESERTVDPRIELEKKCQAKCVRPVNEYQSCVSRVQAKPEMKGNCLGQHEEMYMCIDHCVAKDLFNYLV”, the “soluble on expression in E. coli” value is listed as “not soluble”.

With “MAHHHHHHMNVVDFTWSRIRLFDHLAVILIYEELLKNPLCKITNVYESETRKYKPYPLNTLQMTKLVSIYFKISSKECMMLAEKLYNKGYISYPRTETNYFPDSMNLHKIINELRKNDNFGWYANKLCEEHKYQKPRKGKMNDKAHPPIHPVKNMNKSLKVEEKEWKLYEFICKHFLAVCSNDAIGYNTKVTAKIQEEQFFCKGLKIKEKNYLEIYTYEKWNDKIIPSFQVDDEFYPTSLLIEEGITQPPKYLSESNLLTLMDKFSIGTDATMHEHIENIQKRNYVIKNSKSLFIPTNLGIALVQSYKKFKDIGIDLTDPSLRAKMEKDMSLVASGVKQKNEIIRNYIDIMKYIYQEIYNRIDVLDKNIHYYLNNPDQLSYT”, the “soluble on expression in E. coli” value is “not soluble”.

Take “MGLQELDPLAQLSLPPGFRFYPTDEELMVEYLCRKAAGHDFSLQLIAEIDLYKFDPWVLPSKALFGEKEWYFFSPRDRKYPNGSRPNRVAGSGYWKATGTDKVISTEGRRVGIKKALVFYIGKAPKGTKTNWIMHEYRLIEPSRRNGSTKLDDWVLCRIYKKQTSAQKQAYNNLMTSGREYSNNGSSTSSSSHQYDDVLESLHEIDNRSLGFAAGSSNALPHSHRPVLTNHKTGFQGLAREPSFDWANLIGQNSVPELGLSHNVPSIRYGDGGTQQQTEGIPRFNNNSDVSANQGFSVDPVNGFGYSGQQSSGFGFI”: the “soluble on expression in E. coli” value was “soluble”.

Consider “MNKRYNTLNDYYRRIFGEKTFKVPIDAGFDCPNRDGTVAHGGCTFCTVSGSGDAIVAPEAPIRDQFYKEVDFMHRKWPDVKKYLVYFQNFTNTHDKVEVIRERYEQAINEPGVIGINIGTRPDCLPDVTILYLAELSQRLHVTLELGLQTTYEKTSKLINRAHSYQLYVETVKRVRDLAPKVEIVSHLINGLPGESHEMMLENVRRCVTDNDIDGIKLHLLHLMTNTRMQRDYHEGRLHLLSMEEYVNIICDQLEIIPKNIVIHRLTGDAPRDMLIGPMWSLNKWEVLNSIDREMERRNAYQGCKLEVNI”, for which the “soluble on expression in E. coli” value is reported as “not soluble”.

For the sequence “MKATSEELAIFVAVVESGSFSRAAEQLGQANSAVSRAVKKLEMKLGVSLLNRTTRQLSLTEEGERYFRRVQQILQEMAAAETEIMESRNTPRGLLRIDAATPVMLHFLMPLIKPFRERYPEITLSLVSSETFINLIERKVDVAIRAGTLTDSSLRARPLFTSYRKIIASPDYIARFGKPETVEELKRHLCLGFSEPVSLNTWPIACSDGQLHEIKCGISSNSGETLKQLCLNGNGIACLSDYMIDKEIARGELVELLADKRLPVEMPFSAVYYSDRAVSTRIRAFIDFLSEYIRTAPAGAVKEG”, the “soluble on expression in E. coli” value is given as “not soluble”.
